Test results published in US20020192214A1.

Target: human eosinophil eotaxin receptor CC CKR3, stably expressed in AML14.3D10 cells (human) (UniProt P51677)
Assay: cell-based or functional assay

Sequence of human eosinophil eotaxin receptor CC CKR3, stably expressed in AML14.3D10 cells (human) (P51677 whole entry): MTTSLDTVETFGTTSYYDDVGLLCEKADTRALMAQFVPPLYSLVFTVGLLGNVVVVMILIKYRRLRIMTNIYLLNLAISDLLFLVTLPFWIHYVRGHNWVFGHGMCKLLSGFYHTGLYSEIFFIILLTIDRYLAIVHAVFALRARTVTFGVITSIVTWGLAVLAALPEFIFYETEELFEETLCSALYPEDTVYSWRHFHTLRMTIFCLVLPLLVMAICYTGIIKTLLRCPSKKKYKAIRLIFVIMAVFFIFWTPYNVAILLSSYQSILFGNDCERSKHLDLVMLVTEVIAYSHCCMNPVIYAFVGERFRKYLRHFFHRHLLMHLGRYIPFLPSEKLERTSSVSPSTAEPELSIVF

IL-8 (from UniProt P10145 28-99) (ligand)
Ca^2+-flux (intracellular Ca^2+ levels): > 1 µM
